For 5 compounds, Km, kcat and kcat/Km results are on record in article PMC6479498 (Molecules, 2019).

Broadly, the Km is the concentration of substrate that gives half-maximal velocity. A word on the kcat: it is the maximal rate divided by the concentration of active sites. What is called kcat/Km is the turnover number divided by the Michaelis constant.

Data set [1] deals with T1, AT-ATA (WT-AT), (R)-selective amine transaminase (Aspergillus terreus, UniProt Q0C8G1).
T1 construct: gene ATEG_10023
T1 sequence (Q0C8G1 1-325): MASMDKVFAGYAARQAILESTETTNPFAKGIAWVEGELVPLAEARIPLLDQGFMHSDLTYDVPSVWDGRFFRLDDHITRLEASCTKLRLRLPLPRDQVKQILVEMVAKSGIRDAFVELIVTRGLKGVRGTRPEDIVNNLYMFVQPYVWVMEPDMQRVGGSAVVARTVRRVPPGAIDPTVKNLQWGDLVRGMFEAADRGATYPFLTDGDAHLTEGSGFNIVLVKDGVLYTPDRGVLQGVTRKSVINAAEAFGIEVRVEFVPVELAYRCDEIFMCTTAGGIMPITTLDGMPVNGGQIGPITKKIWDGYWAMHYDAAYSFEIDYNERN
Briefly: acetophenone formation at […] nm. The format is biochemical. To be noted: 2.5 mM (R)-α-MBA, 0.1 mM PLP, 0.25% DMSO, 50 mM sodium phosphate pH 8.0; read-out: Km^pyruvate.

For data set [2], the system named is CC(=O)C(=O)O. Briefly: purified protein. Type of data set: biochemical, Aspergillus terreus. Particulars: 2.5 mM (R)-α-MBA, 0.1 mM PLP, 0.25% DMSO, 50 mM sodium phosphate pH 8.0.
The subject of data set [3] is C[C@@H](N)c1ccccc1. Briefly: purified protein. The format is biochemical, Aspergillus terreus. To be noted: 2.5 mM pyruvate, 0.1 mM PLP, 0.25% DMSO, 50 mM sodium phosphate pH 8.0.

Take `CC(=O)C(=O)O` [pyruvate]: in data set [1], the Km was 230 ± 20 µM.
Consider “AT-ATA (WT-AT), (R)-selective amine transaminase (Aspergillus terreus NIH2624; L118A)”, for which, in data set [2], the Km is 360 ± 50 µM, the kcat is 1.48 ± 0.05 s⁻¹ and the kcat/Km was 4150 M⁻¹ s⁻¹. In data set [3], the Km amounted to 180 ± 10 µM, the kcat is 1.46 ± 0.01 s⁻¹ and the specificity constant (kcat/Km) turned out to be 7930 M⁻¹ s⁻¹.
For “AT-ATA (WT-AT), (R)-selective amine transaminase (Aspergillus terreus NIH2624; L118I)”, in data set [2], the Km came out at 280 ± 20 µM, the kcat was 0.82 ± 0.01 s⁻¹ and the kcat/Km was determined as 2950 M⁻¹ s⁻¹. Further, in data set [3], the Km was determined as 130 ± 10 µM, the kcat was 0.82 ± 0.01 s⁻¹ and the kcat/Km came out at 6400 M⁻¹ s⁻¹.
For the compound “AT-ATA (WT-AT), (R)-selective amine transaminase (Aspergillus terreus NIH2624; L118T)”, the Km in data set [2] is 400 ± 20 µM. Besides, in data set [3], the Km was found to be 180 ± 10 µM, the kcat was determined as 1.79 ± 0.02 s⁻¹ and the kcat/Km amounted to 9980 M⁻¹ s⁻¹.
As for “AT-ATA (WT-AT), (R)-selective amine transaminase (Aspergillus terreus NIH2624; L118V)”, in data set [2], the Km is 290 ± 20 µM, the kcat was determined as 0.51 ± 0.01 s⁻¹ and the kcat/Km amounted to 1760 M⁻¹ s⁻¹. Also, in data set [3], the Km was 160 ± 10 µM, the kcat was 0.57 ± 0.01 s⁻¹ and the kcat/Km was determined as 3570 M⁻¹ s⁻¹.
